Source: publication PMC2918618, “Characterization of the TnsD-attTn7 complex that promotes site-specific insertion of Tn7” (Mobile DNA, 2010)
Each block holds one molecule with its values, some of them ahead of it.

Key:
[1] = biological target: T1, TnsD wt (Escherichia coli (transposon Tn7)) (UniProt P13991); assay: EMSA; conditions: Gel-shift buffer not given (as described in ref. 6); TnsD stored in 500 mM KCl, 50 mM Tris-HCl pH 8.0, 1 mM EDTA, 2 mM DTT, 25% glycerol
T1 sequence: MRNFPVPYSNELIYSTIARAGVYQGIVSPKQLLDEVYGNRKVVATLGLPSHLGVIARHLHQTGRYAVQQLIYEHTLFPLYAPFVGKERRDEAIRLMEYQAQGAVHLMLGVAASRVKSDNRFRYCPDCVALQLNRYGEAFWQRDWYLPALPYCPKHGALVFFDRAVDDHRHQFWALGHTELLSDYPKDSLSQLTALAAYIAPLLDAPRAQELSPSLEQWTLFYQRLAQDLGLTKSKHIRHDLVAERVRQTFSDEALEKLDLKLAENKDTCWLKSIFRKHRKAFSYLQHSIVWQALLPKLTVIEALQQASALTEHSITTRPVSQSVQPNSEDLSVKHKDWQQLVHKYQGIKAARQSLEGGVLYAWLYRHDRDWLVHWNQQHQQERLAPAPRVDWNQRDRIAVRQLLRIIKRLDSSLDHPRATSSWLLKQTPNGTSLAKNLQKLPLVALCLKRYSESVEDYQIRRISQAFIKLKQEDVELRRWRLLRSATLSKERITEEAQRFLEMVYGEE

RB = assay: two-hybrid; yeast two-hybrid (ProQuest Two-Hybrid System); TnsD in pDBLeu (Gal4-DB), TnsC in pPC86 (Gal4-AD); read-out β-galactosidase activity; empty vectors gave 0.075
RB, sequence (P06400 2-928): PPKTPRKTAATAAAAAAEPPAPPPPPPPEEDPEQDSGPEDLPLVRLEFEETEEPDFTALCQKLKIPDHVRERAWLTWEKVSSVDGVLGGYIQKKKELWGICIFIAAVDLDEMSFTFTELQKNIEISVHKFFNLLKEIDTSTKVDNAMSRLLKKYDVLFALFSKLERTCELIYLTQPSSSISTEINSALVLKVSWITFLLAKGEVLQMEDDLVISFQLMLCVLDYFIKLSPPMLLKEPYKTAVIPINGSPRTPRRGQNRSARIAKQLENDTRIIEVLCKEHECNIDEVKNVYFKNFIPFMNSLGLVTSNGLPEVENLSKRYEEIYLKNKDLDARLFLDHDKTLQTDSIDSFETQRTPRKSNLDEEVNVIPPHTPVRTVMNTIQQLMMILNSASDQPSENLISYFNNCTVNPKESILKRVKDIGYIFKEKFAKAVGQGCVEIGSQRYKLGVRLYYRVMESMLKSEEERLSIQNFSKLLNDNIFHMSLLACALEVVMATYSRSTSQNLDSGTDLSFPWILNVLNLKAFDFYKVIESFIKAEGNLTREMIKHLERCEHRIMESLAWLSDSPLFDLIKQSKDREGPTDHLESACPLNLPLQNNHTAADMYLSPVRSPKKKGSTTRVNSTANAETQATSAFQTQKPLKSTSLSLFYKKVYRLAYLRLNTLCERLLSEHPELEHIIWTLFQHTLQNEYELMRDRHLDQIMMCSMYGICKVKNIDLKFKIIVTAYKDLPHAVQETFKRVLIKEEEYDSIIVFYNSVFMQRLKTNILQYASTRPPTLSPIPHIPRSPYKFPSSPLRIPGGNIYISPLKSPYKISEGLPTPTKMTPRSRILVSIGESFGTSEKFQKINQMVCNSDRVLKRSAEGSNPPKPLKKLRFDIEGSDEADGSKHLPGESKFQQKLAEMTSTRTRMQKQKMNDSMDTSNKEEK

Jun = assay: as above
Jun, sequence (P05627 whole entry): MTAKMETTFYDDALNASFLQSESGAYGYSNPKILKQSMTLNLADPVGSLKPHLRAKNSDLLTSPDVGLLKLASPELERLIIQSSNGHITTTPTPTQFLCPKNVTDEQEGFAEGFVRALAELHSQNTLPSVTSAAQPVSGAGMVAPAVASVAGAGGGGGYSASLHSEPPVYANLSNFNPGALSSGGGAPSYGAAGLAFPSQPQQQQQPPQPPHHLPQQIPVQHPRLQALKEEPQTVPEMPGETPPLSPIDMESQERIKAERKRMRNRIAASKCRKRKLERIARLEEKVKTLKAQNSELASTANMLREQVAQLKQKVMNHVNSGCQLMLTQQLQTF

TnsD (1 to 507) wt = biological target: T2, TnsD (1 to 507) wt (E. coli (transposon Tn7), UniProt P13991 1-508); assay: as above; conditions: partners not purified
T2 construct: TnsD, target site-selector protein of the bacterial transposon Tn7, residues 1 to 507 (full-length TnsD is 507 aa); TnsD was cloned into pDBLeu (ProQuest Two-Hybrid System); also called full-length TnsD; source: yeast two-hybrid fusion
T2 sequence (looked up): T1 sequence

TnsD (1 to 350) = biological target: T3, TnsD (1 to 350) (E. coli (transposon Tn7), UniProt P13991 1-350); assay: as above; conditions: partners not purified
T3 construct: TnsD of transposon Tn7, residues 1 to 350; source: yeast two-hybrid fusion
T3 sequence (looked up): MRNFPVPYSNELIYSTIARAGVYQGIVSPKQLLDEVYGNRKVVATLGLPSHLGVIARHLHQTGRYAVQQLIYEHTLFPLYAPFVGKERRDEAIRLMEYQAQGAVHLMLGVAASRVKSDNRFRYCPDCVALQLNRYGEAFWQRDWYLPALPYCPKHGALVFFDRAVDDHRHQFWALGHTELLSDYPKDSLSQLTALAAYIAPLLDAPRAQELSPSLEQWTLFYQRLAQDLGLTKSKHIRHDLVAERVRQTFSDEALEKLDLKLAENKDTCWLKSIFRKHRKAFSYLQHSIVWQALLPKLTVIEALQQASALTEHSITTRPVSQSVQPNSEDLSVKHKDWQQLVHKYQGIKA

TnsD (1 to 375) = biological target: T4, TnsD (1 to 375) (E. coli (transposon Tn7), UniProt P13991 1-375); assay: as above; conditions: partners not purified
T4 construct: TnsD of transposon Tn7, residues 1 to 375; source: yeast two-hybrid fusion
T4 sequence (looked up): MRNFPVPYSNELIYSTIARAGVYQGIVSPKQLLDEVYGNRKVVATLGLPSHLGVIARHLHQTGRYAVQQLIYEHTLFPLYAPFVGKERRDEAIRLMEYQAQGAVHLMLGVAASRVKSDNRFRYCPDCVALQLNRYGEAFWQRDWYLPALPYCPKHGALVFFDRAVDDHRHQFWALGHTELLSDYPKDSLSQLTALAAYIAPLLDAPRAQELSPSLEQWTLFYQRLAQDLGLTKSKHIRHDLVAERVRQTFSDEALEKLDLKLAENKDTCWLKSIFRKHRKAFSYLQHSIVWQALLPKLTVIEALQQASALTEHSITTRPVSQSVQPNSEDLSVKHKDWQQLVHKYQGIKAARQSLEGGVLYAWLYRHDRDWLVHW

TnsD (1 to 309) = biological target: T5, TnsD (1 to 309) (E. coli (transposon Tn7), UniProt P13991 1-309); assay: as above; conditions: partners not purified
T5 construct: TnsD of transposon Tn7, residues 1 to 309; source: yeast two-hybrid fusion
T5 sequence (looked up): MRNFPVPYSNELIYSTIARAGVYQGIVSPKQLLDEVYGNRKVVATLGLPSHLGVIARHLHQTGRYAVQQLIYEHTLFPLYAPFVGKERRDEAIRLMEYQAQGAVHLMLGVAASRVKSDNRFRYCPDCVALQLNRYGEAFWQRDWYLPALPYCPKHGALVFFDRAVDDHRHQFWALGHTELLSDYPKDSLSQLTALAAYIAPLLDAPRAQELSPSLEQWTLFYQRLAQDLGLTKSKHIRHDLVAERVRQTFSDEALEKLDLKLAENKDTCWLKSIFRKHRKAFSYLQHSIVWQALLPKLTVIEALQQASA

TnsD (1 to 399) = biological target: T6, TnsD (1 to 399) (E. coli (transposon Tn7), UniProt P13991 1-399); assay: as above; conditions: partners not purified
T6 construct: TnsD of transposon Tn7, residues 1 to 399; source: yeast two-hybrid fusion
T6 sequence (looked up): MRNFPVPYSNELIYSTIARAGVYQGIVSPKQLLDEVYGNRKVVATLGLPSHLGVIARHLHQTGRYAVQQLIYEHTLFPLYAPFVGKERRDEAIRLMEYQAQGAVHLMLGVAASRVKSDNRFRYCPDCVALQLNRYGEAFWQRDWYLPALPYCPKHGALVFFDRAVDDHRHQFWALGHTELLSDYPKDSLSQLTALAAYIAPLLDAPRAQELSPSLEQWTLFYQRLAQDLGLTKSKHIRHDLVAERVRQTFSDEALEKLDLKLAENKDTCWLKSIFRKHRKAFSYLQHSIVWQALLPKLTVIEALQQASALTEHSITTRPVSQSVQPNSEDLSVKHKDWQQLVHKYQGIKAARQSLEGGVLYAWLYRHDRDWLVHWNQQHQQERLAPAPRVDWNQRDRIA

Molecule: CCGCGTAACCTGGCAAAATCGGTTACGTTTGAGTAA (double strand) [attTn7 +31 mutant]
binding signal (relative to wt site) [1]: < 0.2

β-galactosidase activity (RB): 1
Molecule: E2F1 (natural protein)

Molecule: CCGCGTAACCTGGCAACATCGGTTACGGTTGAGTAA (double strand) [attTn7 +42 mutant]
binding signal (relative to wt site) [1]: < 0.2

Molecule: CCGCGTACCCTGGCAAAATCGGTTACGGTTGAGTAA (double strand) [attTn7 +51 mutant]
binding signal (relative to wt site) [1]: < 0.2

β-galactosidase activity (Jun): 5
Molecule: Fos (natural protein)

Molecule: CCGCGTAACCTGGCAAAATCGGTTACGGGTGAGTAA (double strand) [attTn7 +30 mutant]
binding signal (relative to wt site) [1]: 0.5

Molecule: CCGCGTAACCTGGCAAAATCGTTTACGGTTGAGTAA (double strand) [attTn7 +37 mutant]
binding signal (relative to wt site) [1]: 0.5

Molecule: CCGCGTAACCTGGCACAATCGGTTACGGTTGAGTAA (double strand) [attTn7 +43 mutant]
binding signal (relative to wt site) [1]: < 0.2

Molecule: CCGCGTAACCTGGCAAAATCGGTTAAGGTTGAGTAA (double strand) [attTn7 +33 mutant]
binding signal (relative to wt site) [1]: < 0.2

Molecule: CCGCGTCACCTGGCAAAATCGGTTACGGTTGAGTAA (double strand) [attTn7 +52 mutant]
binding signal (relative to wt site) [1]: 0.5

Molecule: CCGCGTAACCTGGAAAAATCGGTTACGGTTGAGTAA (double strand) [attTn7 +45 mutant]
binding signal (relative to wt site) [1]: < 0.2

Molecule: CCGCGTAACCGGGCAAAATCGGTTACGGTTGAGTAA (double strand) [attTn7 +48 mutant]
binding signal (relative to wt site) [1]: 0.5

Molecule: CCGCTTAACCTGGCAAAATCGGTTACGGTTGAGTAA (double strand) [attTn7 +54 mutant]
binding signal (relative to wt site) [1]: < 0.2

β-galactosidase activity (TnsD (1 to 507) wt): 0.2
B1: TnsC (1 to 293) (domain or fragment, E. coli (transposon Tn7), UniProt P05846 1-293, looked up)
chain: MSATRIQAVYRDTGVEAYRDNPFIEALPPLQESVNSAASLKSSLQLTSSDLQKSRVIRAHTICRIPDDYFQPLGTHLLLSERISVMIRGGYVGRNPKTGDLQKHLQNGYERVQTGELETFRFEEARSTAQSLLLIGCSGSGKTTSLHRILATYPQVIYHRELNVEQVVYLKIDCSHNGSLKEICLNFFRALDRALGSNYERRYGLKRHGIETMLALMSQIANAHALGLLVIDEIQHLSRSRSGGSQEMLNFFVTMVNIIGVPVMLIGTPKAREIFEADLRSARRGAGFGAIFW
notes: TnsC of transposon Tn7, residues 1 to 293; source: yeast two-hybrid fusion

β-galactosidase activity (TnsD (1 to 507) wt): 1
B2: TnsC (1 to 480) (domain or fragment, E. coli (transposon Tn7), UniProt P05846 1-480, looked up)
chain: MSATRIQAVYRDTGVEAYRDNPFIEALPPLQESVNSAASLKSSLQLTSSDLQKSRVIRAHTICRIPDDYFQPLGTHLLLSERISVMIRGGYVGRNPKTGDLQKHLQNGYERVQTGELETFRFEEARSTAQSLLLIGCSGSGKTTSLHRILATYPQVIYHRELNVEQVVYLKIDCSHNGSLKEICLNFFRALDRALGSNYERRYGLKRHGIETMLALMSQIANAHALGLLVIDEIQHLSRSRSGGSQEMLNFFVTMVNIIGVPVMLIGTPKAREIFEADLRSARRGAGFGAIFWDPIQQTQRGKPNQEWIAFTDNLWQLQLLQRKDALLSDEVRDVWYELSQGVMDIVVKLFVLAQLRALALGNERITAGLLRQVYQDELKPVHPMLEALRSGIPERIARYSDLVVPEIDKRLIQLQLDIAAIQEQTPEEKALQELDTEDQRHLYLMLKEDYDSSLLIPTIKKAFSQNPTMTRQKLLPLVL
notes: TnsC of transposon Tn7, residues 1 to 480; also called TnsC with deletion of 75 amino acids from the C terminus; source: yeast two-hybrid fusion

β-galactosidase activity (TnsD (1 to 350)): 4.5 | β-galactosidase activity (TnsD (1 to 375)): 5 | β-galactosidase activity (TnsD (1 to 507) wt): 1 | β-galactosidase activity (TnsD (1 to 309)): 4.5 | β-galactosidase activity (TnsD (1 to 399)): 4.5
B3: TnsC (1 to 555) wt (natural protein, E. coli (transposon Tn7), UniProt P05846 1-555, looked up)
chain: MSATRIQAVYRDTGVEAYRDNPFIEALPPLQESVNSAASLKSSLQLTSSDLQKSRVIRAHTICRIPDDYFQPLGTHLLLSERISVMIRGGYVGRNPKTGDLQKHLQNGYERVQTGELETFRFEEARSTAQSLLLIGCSGSGKTTSLHRILATYPQVIYHRELNVEQVVYLKIDCSHNGSLKEICLNFFRALDRALGSNYERRYGLKRHGIETMLALMSQIANAHALGLLVIDEIQHLSRSRSGGSQEMLNFFVTMVNIIGVPVMLIGTPKAREIFEADLRSARRGAGFGAIFWDPIQQTQRGKPNQEWIAFTDNLWQLQLLQRKDALLSDEVRDVWYELSQGVMDIVVKLFVLAQLRALALGNERITAGLLRQVYQDELKPVHPMLEALRSGIPERIARYSDLVVPEIDKRLIQLQLDIAAIQEQTPEEKALQELDTEDQRHLYLMLKEDYDSSLLIPTIKKAFSQNPTMTRQKLLPLVLQWLMEGETVVSELEKPSKSKKVSAIKVVKPSDWDSLPDTDLRYIYSQRQPEKTMHERLKGKGVIVDMASLFKQAG
notes: TnsC, transposition protein of the bacterial transposon Tn7, residues 1 to 555 (full-length is 555 aa); TnsC was cloned into pPC86 (ProQuest Two-Hybrid System); also called full-length TnsC; source: yeast two-hybrid fusion

β-galactosidase activity (TnsD (1 to 507) wt): 1
B4: TnsC (1 to 384) (domain or fragment, E. coli (transposon Tn7), UniProt P05846 1-384, looked up)
chain: MSATRIQAVYRDTGVEAYRDNPFIEALPPLQESVNSAASLKSSLQLTSSDLQKSRVIRAHTICRIPDDYFQPLGTHLLLSERISVMIRGGYVGRNPKTGDLQKHLQNGYERVQTGELETFRFEEARSTAQSLLLIGCSGSGKTTSLHRILATYPQVIYHRELNVEQVVYLKIDCSHNGSLKEICLNFFRALDRALGSNYERRYGLKRHGIETMLALMSQIANAHALGLLVIDEIQHLSRSRSGGSQEMLNFFVTMVNIIGVPVMLIGTPKAREIFEADLRSARRGAGFGAIFWDPIQQTQRGKPNQEWIAFTDNLWQLQLLQRKDALLSDEVRDVWYELSQGVMDIVVKLFVLAQLRALALGNERITAGLLRQVYQDELKPVHP
notes: TnsC of transposon Tn7, residues 1 to 384; also called TnsC with deletion of 171 amino acids from the C terminus; source: yeast two-hybrid fusion
